According to US20160340442A1 (Dana-Farber, published 2016):

Columns and labels:
MUC1-C/ECD protein = molecular target: T1, MUC1-C/ECD protein (human, UniProt P15941 1098-1155); test: ELISA, plates coated with the MUC1-C/ECD antigen; soluble MUC1-C/ECD protein also abrogated 3D1 binding to cells
T1 construct: also called MUC1-C/ECD antigen; the antigen
T1 sequence: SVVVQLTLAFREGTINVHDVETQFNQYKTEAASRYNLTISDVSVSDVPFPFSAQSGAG

P3 = molecular target: T2, P3 (human); test: ELISA on coated MUC1-C/ECD antigen with or without peptide (indirect)
T2 construct: Synthetic overlapping peptide of MUC1-C/ECD; also called peptide P3
T2 peptide: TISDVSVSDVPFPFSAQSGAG
Method: (§1) Characterized of 7B8 and 3D1 antibodies. Linear epitope mapping of 7B8 and 3D1 clones was performed using three overlapping peptides spanning the entire MUC1-C/ECD region (58 amino acids) were synthesized. ELISA assays were performed using 7B8 or 3D1 purified antibodies in the presence or absence of P1, P2 or P3 peptides. […] Conformational epitope mapping of 7B8 and 3D1 was performed using eight critical individual point mutants in the MUC1-C/ECD region by ELISA. […] These findings indicate that D19 is a part of the conformational core/pocket for 3D1 binding. ZR-75-1 breast carcinoma cells were used determine 7B8 or 3D1 antibody binding in a competitive format with MUC1-C/ECD and analyzed by FLOW. […] These findings indicate that the conformational binding epitopes of 7B8 and 3D1 are different. The sequencing results for hybridoma 3D1 is shown in FIG. 50 and is discussed in greater detail below.

P2 = molecular target: T3, P2 (human); test: as above
T3 construct: Synthetic overlapping peptide of MUC1-C/ECD; also called peptide P2
T3 peptide: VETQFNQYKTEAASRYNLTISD
Method: as §1

P1 = molecular target: T4, P1 (human); test: as above
T4 construct: Synthetic overlapping peptide of MUC1-C/ECD; also called peptide P1
T4 peptide: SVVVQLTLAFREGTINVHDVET
Method: as §1

binding result (MUC1-C/ECD protein): binds
binding result (P3): no binding
binding result (P2): no binding
binding result (P1): no binding
B1: 441.3.3D1.D6.D11.B1.F10 (antibody, V domains shown)
VH: QVQLQQSGAELVRPGSSVKISCKTSGYAFSNFWMNWVKQRPGQGLEWIGQIYPGDGDTNYNGKFKGKATLTADKSSSTAYMQLSSLTSEASAVYFCARSYYRSAWFAYWGQGTLVSVSA
VL: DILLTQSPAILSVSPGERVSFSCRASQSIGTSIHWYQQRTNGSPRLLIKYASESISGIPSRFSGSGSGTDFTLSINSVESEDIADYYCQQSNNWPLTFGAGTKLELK
notes: Mouse hybridoma antibody; also called Anti-Muc-1; 536064-1
